Like-named read-outs stand apart in the source and are kept apart here. One block for each binder: values may come before it. Non-standard residues stand in square brackets, D forms with d. Groups on a side chain read outwards from the residue. Primed or numbered codes have the meaning given here. No end group written: not given here. *: point of attachment. OCPT = camptothecin (CPT) attached as an ester, CC[C@@]1(O*)C(=O)OCc2c1cc1n(c2=O)Cc2cc3ccccc3nc2-1; Propanoyl(3-maleimido) = O=C1C=CC(=O)N1CCC(=O)*; PEG4′ = tetraethylene glycol; Dab = NCC[C@H](N)C(=O)O; CO′ = not defined here; Dap = NC[C@H](N)C(=O)O; CPT = Camptothecin; AF = auristatin F; Sar = CNCC(=O)O
Experiments:
Assay in all cases: cell-based or functional assay
[1] = target: T1, Recombinant human Cathepsin B (human, UniProt P07858 80-333)
[2] = target: T1, Recombinant human Cathepsin B; remark: listed apart in the source
[3] = target: T1, Recombinant human Cathepsin B; remark: listed apart in the source
[4] = target: T1, Recombinant human Cathepsin B; remark: listed apart in the source

Ratio (T1/2 Compound/T1/2 Reference) [1]: 0.08
B1: Compound 31, AF-Cit-Lys(Mal-DM1)-Phe-Lys(PEG4-Mal-Cys-Ac)-Phe-OH (peptide)
peptide: XKFKF
modifications: AF at the N-terminus; citrulline (Cit); Lys(Mal-DM1); Lys(PEG4-Mal-Cys-Ac)

Ratio (T1/2 Compound/T1/2 Reference) [2]: 0.07
B2: Compound 30, Ac-Cys-Mal-PEG4-Phe-Arg-Lys(Mal-DM1)-Arg-Lys(AF)-Phe-OH (peptide)
peptide: FRKRKF
modifications: Ac-Cys-Mal-PEG4 at the N-terminus; Lys(Mal-DM1); Lys(AF)

Ratio (T1/2 Compound/T1/2 Reference) [3]: 0.12
B3: Compound 1, AF-Arg-Lys(PEG4-Mal-Cys-Ac)-Phe-OH (peptide)
peptide: RKF
modifications: N-terminus acylated with auristatin F (AF); Lys 2 side chain carries PEG4-Mal-Cys-Ac

Ratio (T1/2 Compound/T1/2 Reference) [3]: 0.09
B4: Compound 7, DM1-Mal-Phe-Cit-Phe-Lys(PEG4-Mal-Cys-Ac)-OH (peptide)
peptide: FXFK
modifications: DM1-Mal on the N-terminus of Phe; citrulline (Cit); Lys(PEG4-Mal-Cys-Ac)

Ratio (T1/2 Compound/T1/2 Reference) [4]: 0.2
B5: Compound 11, Arg-PEG4-Phe-Arg-Ser(CO-CPT)-Phe-OH (peptide)
peptide: R[PEG4′]FRS([CO′-CPT])F-OH

Ratio (T1/2 Compound/T1/2 Reference) [4]: 0.63
B6: Compound 9, Arg-PEG4-Phe-Arg-Dap(CO-CPT)-Phe-OH (peptide)
peptide: R[PEG4′]FR[Dap](CO‑CPT)F-OH

Ratio (T1/2 Compound/T1/2 Reference) [4]: 0.19
B7: Compound 8, Arg-PEG4-Phe-Arg-Glu(Sar-OCPT)-Phe-OH (peptide)
peptide: R[PEG4′]FRE([Sar-OCPT])F-OH

Ratio (T1/2 Compound/T1/2 Reference) [4]: 0.15
B8: Compound 13, Ac-Cys-Mal-PEG4-Phe-Lys-Lys(AF)-Phe-OH (peptide)
peptide: {Ac-Cys-Propanoyl(3-maleimido)-PEG4′}-FKK(AF)F-OH

Ratio (T1/2 Compound/T1/2 Reference) [3]: 4e-05
B9: Compound 23, DM1-Mcc-Cit-Lys(PEG5-Ma-Cys-Ac)-Tyr-OH (peptide)
peptide: XKY
modifications: X at position 1 is citrulline (Cit); DM1-Mcc on the N-terminus; Lys 2 side chain carries PEG5-Ma-Cys-Ac

Ratio (T1/2 Compound/T1/2 Reference) [3]: 0.05
B10: Compound 5, DM1-Mal-Phe-Lys-Lys(PEG4-Mal-Cys-Ac)-Phe-OH (peptide)
peptide: FKKF
modifications: DM1-Mal on the N-terminus of Phe; Lys(PEG4-Mal-Cys-Ac)

Ratio (T1/2 Compound/T1/2 Reference) [3]: 0.11
B11: Compound 3, AF-Arg-Phe-Lys(PEG4-Mal-Cys-Ac)-OH (peptide)
peptide: RFK
modifications: N-terminus acylated with auristatin F (AF); Lys 3 side chain carries PEG4-Mal-Cys-Ac

Ratio (T1/2 Compound/T1/2 Reference) [4]: 0.1
B12: Compound 10, Arg-PEG4-Phe-Arg-Dab(CO-CPT)-Phe-OH (peptide)
peptide: R[PEG4′]FR[Dab](CO‑CPT)F-OH

Ratio (T1/2 Compound/T1/2 Reference) [2]: 0.23
B13: Compound 29, Ac-Cys-Mal-PEG4-[Phe-Lys-Lys(Mal-DM1)-Phe]2-OH (peptide)
peptide: FKKFFKKF
modifications: Ac-Cys-Mal-PEG4 at the N-terminus; two Lys(Mal-DM1)

Ratio (T1/2 Compound/T1/2 Reference) [4]: 0.03
B14: Compound 28, Ac-Cys-Mal-PEG4-Phe-Lys-Lys(Mal-DM1)-Phe-Phe-Lys-OH (peptide)
peptide: FKKFFK
modifications: Ac-Cys-Mal-PEG4 at the N-terminus; Lys(Mal-DM1)

Ratio (T1/2 Compound/T1/2 Reference) [3]: 0.09
B15: Compound 19, AF-Cit-Lys(PEG4-Mal-Cys-Ac)-Phe-OH (peptide)
peptide: XKF
modifications: X at position 1 is citrulline (Cit); N-terminus acylated with auristatin F (AF); Lys 2 side chain carries PEG4-Mal-Cys-Ac

Ratio (T1/2 Compound/T1/2 Reference) [3]: 0.02
B16: Compound 6, DM1-Mal-Phe-Cit-Lys(PEG4-Mal-Cys-Ac)-Phe-OH (peptide)
peptide: FXKF
modifications: DM1-Mal on the N-terminus of Phe; citrulline (Cit); Lys(PEG4-Mal-Cys-Ac)

Ratio (T1/2 Compound/T1/2 Reference) [4]: 0.14
B17: Compound 12, Ac-Cys-Mal-PEG4-Phe-Lys-Lys(Mal-DM1)-Phe-OH (peptide)
peptide: FKKF
modifications: Ac-Cys-Mal-PEG4 at the N-terminus; Lys(Mal-DM1)

Ratio (T1/2 Compound/T1/2 Reference) [4]: 0.005
B18: Compound 27, Ac-Cys-Ma-PEG5-Phe-Cit-Lys(Mcc-DM1)-Tyr-OH (peptide)
peptide: FXKY
modifications: Ac-Cys-Ma-PEG5 at the N-terminus; citrulline (Cit); Lys(Mcc-DM1)

Ratio (T1/2 Compound/T1/2 Reference) [3]: 0.005
B19: Compound 22, DM1-Mcc-Phe-Cit-Lys(PEG5-Ma-Cys-Ac)-Tyr-OH (peptide)
peptide: FXKY
modifications: DM1-Mcc on the N-terminus of Phe; citrulline (Cit); Lys(PEG5-Ma-Cys-Ac)

— patent US20220062371A1 (DEBIOPHARM RESEARCH AND MANUFACTURING S A, published 2022)
